Targets include 229E FP peptide (229E); HKU1 FP peptide (HKU1); SADS HR2 peptide (SADS); MHV HR2 peptide (MHV).
Holding throughout (assay): peptide ELISA
Assay [1] has as its target Hu_PDCoV FP peptide (Hu_PDCoV).
Assay [2] deals with OC43 FP peptide (OC43), P36334.
Assay [3] addresses NL63 FP peptide (NL63), Q6Q1S2.
Assay [4] has as its target MERS FP peptide (MERS), K9N5Q8.
The target of assay [5] is SARS-CoV FP peptide (SARS-CoV), P59594.
Assay [6] has as its target SARS-CoV-2 FP peptide (SARS-CoV-2).
Assay [7] addresses CCoV_HuPn FP peptide (CCoV_HuPn).
The target of assay [8] is FCoV-KU2 FP peptide (FCoV-KU2).
The target of assay [9] is HKU5 HR2 peptide (HKU5), A3EXD0.
Assay [10] concerns the target SARS-CoV-2 HR2 peptide (SARS-CoV-2), P0DTC2.
Assay [11] addresses HKU4 HR2 peptide (HKU4), A3EX94.
Assay [12] has as its target HKU9 HR2 peptide (HKU9), A3EXG6.

B1: fp.002 (antibody, V domains shown)
VH: VQLVESGGGVVQPGTSLRLSCAGSGFNFDNYAIHWVRQAPGQGLEWVAIISYEARNKKYAGSVTGRFSISRDNSKSMVYLQMDSLRGEDTAVYYCARDLFLSDYDRSGYDPTRGGFDLWGQGTLVTVSS
VL: EIVMTQSPATLSVSPGERATLSCRASQSVSSSLAWYQHKLGQAPRLLIYGASTRATGIPGRFSGSGSGTEFTLTISSLQSEDVAIYYCQQYGDWPLVTFGGGTKVEIK
As to B1, the EC50 with 229E FP peptide (229E) came out at 0.0176 µg/mL; in assay [1], 0.0215 µg/mL; in assay [2], 0.0211 µg/mL; in assay [3], 0.0245 µg/mL; in [4], 0.0358 µg/mL; in [5], 0.0285 µg/mL. Also, the figures for the EC50 (in [6]; in the assay with HKU1 FP peptide (HKU1)) were 0.032 µg/mL and 0.0256 µg/mL, respectively.

B2: fp.009 (antibody, V domains shown)
VH: VQLVESGGGVVQPGTSLTLSCEASGFTFSNYAMHWVRQAPGKGLEWVAIISFDTRNKKFAGSVQGRFSISRDNAKNSIYLQMNNLRPEDTGIYYCARDVFLSDYDSRGFDRTRGGFDYWGQGTLVTVSS
VL: EIVMTQSPATLSVSPGEKATLSCRASESVGSSLAWYQQKLGQAPRLLIYGASTRATGIPARFSGSGSGAEFTLTISSLQSEDFAIYYCQQYGDWPLLTFGGGTKVEIK
In the case of B2, the EC50 came out at 0.0236 µg/mL in the assay with 229E FP peptide (229E); 0.0276 µg/mL in assay [1]; 0.021 µg/mL in assay [7]; 0.026 µg/mL in [2]; 0.0214 µg/mL in assay [3]; 0.0346 µg/mL in assay [4]. For the same molecule, the EC50 in assay [5] came to 0.0251 µg/mL; in assay [6], 0.038 µg/mL; with HKU1 FP peptide (HKU1) it was 0.0241 µg/mL.

B3: fp.003 (antibody, V domains shown)
VH: VQLVESGGGVVQPGTSLRLSCTASGFSFSNYAMHWVRQAPGKGLEWVAIISFDTRNKEFADSVKGRFSISRDNSKNSLNLQMNSLRPEDTGVYYCARDLFLSDYDSRGYEPSRGGFDYWGQGTLVTVSS
VL: EIVMTQSPATLSVSPGERATLSCRASQSVSSSLAWYQQKLGQPPRLLIYGASTRATGIPARFSGSGSGTEFTLTISSLKSEDSAVYYCQQYNDWPLLSFGGGTKVEIK
For the molecule B3, the EC50 worked out at 0.0201 µg/mL in the assay with 229E FP peptide (229E); 0.0149 µg/mL in assay [2]; 0.0249 µg/mL in [3]; 0.0295 µg/mL in assay [8]; 0.0349 µg/mL in assay [4]; 0.0285 µg/mL in assay [5]. The concentration for a half-maximal effect (EC50) in [6] was determined as 0.0369 µg/mL; in the assay with HKU1 FP peptide (HKU1), 0.0238 µg/mL.

B4: fp.006 (antibody, V domains shown)
VH: VQLVESGGGVVQPGGSLRLSCAASGFNFNNYALHWVRQAPGKGLEWVAIISYEARNKKYGVSVMGRFSISRDNSKSIMYLEMNSLRVEDTGVYYCARDLFLSDYDRSGYDPTRGGFDHWGQGTLVTVSS
VL: EIVMTQSPATLSVSPGERATLSCRASQSVSSSLAWYQHRFGQAPRLLISGASTRATGIPGRFSGSGSGTEFTLTISSLQSEDVAVYYCQQYGDWPLVTFGGGTKVEIK
For the molecule B4, the EC50 with 229E FP peptide (229E) worked out at 0.0121 µg/mL; in [2], 0.0134 µg/mL; in [3] it was 0.0144 µg/mL; in assay [8], 0.0149 µg/mL; in assay [4], 0.0228 µg/mL; in assay [5] it was 0.0157 µg/mL. Besides, the figures for the EC50 (in assay [6]; in the assay with HKU1 FP peptide (HKU1)) were 0.0331 µg/mL and 0.0168 µg/mL, respectively.

B5: fp.005 (antibody, V domains shown)
VH: VQLVESGGGVVQPGNSLRLSCAASGFRFNNYAMHWVRQAPGKGLEWVAIISYEARNEKYADSVKGRFSISRDNAKNTLYLQMNSLRADDTGVYYCARDLFLSDYDTSGYDRTRGGFDYWGQGALVTVSS
VL: EIVMTQSPATLSVSPGERATLSCRASQSVSNGLAWYQHRFGQPPRLLIYGASTRATGIPTRFSGSGSGTEFTLTISSLQSEDFAVYYCQQYDDWPLITFGGGTKVEIK
B5: the EC50 came out at 0.0175 µg/mL with 229E FP peptide (229E); 0.0244 µg/mL in [2]; 0.0231 µg/mL in [3]; 0.028 µg/mL in [8]; 0.04 µg/mL in [4]; 0.0295 µg/mL in [6].

B6: hr2.015 (antibody, V domains shown)
VH: QVQLVQSGAEVKKPGASVKVSCKASGYTFSSYYVNWVRQAPGQGLEWLGIINRSGSSTIYAQKFQGRVTMTRDTSTSTVYLELSSLRSEDTAVYYCARDQDHALHWGQGTLVTVSS
VL: QSVLTQPPSVSAAPGQKVTISCSGSSSNIGSNYVSWYQQLPGTAPKLLIYDNSERPSGIPDRFSGSRSGTSATLGITGLQTGDEADYYCGTWDTSLSAWVFGGGTKLTVL
B6: the EC50 was 0.0731 µg/mL in the assay with SADS HR2 peptide (SADS); 0.0467 µg/mL in assay [9]; 0.047 µg/mL in assay [10]; 0.0543 µg/mL with MHV HR2 peptide (MHV); 0.05 µg/mL in [11].

B7: fp.004 (antibody, V domains shown)
VH: VQLVESGGGVVQPGTSLRLSCVASGFTFSNYAMHWVRQAPGKGLEWVAIISFDTRNTASAASVKGRFNISRDNSKNSLYLQMNSLRPEDTGVYYCARDLFLSDYDSRGYDPITGGFDCWGQGTLVTVSS
VL: EIVMTQSPAALSVSPGEGATLSCRASQSVGSRLAWYQQKLGRPPRLLIYGASTRATGIPARFSGSGSGTEFTLTISSLQSEDFAVYYCQQYNDWPLLTFGGGTKVKIK
Regarding B7, the EC50 in the assay with 229E FP peptide (229E) worked out at 0.0202 µg/mL; in assay [1], 0.0343 µg/mL; in assay [2], 0.0222 µg/mL; in [3] it was 0.0267 µg/mL; in assay [4], 0.0386 µg/mL; in assay [5], 0.03 µg/mL. Besides, the EC50 in assay [6] amounted to 0.0352 µg/mL; in the assay with HKU1 FP peptide (HKU1) it was 0.0272 µg/mL.

B8: hr2.094 (antibody, V domains shown)
VH: EVQLVESGGGLVQPGGSLRLSCAASGFTFSTFWMTWVRQAPGKGLEWVANIKSDGSEKYYVDSVKGRFTISRDNAKNSLYLQMNSLRAEDTAVYYCATWFGLHWGQGTLVTVSS
VL: DIVMTQSPDSLAVSLGERASINCKSSQTVLYSSNNKNYLAWYQQKPGQPPKLLIHWASTRDSGVPDRFSGSGSGTDFTLTISSLQAEDVAVYYCQQYHRIPWTFGRGTKVEIK
Consider B8, for which the EC50 is 0.0192 µg/mL in assay [9]; 0.0835 µg/mL in assay [10]; 0.227 µg/mL in assay [12]; 0.0189 µg/mL in the assay with MHV HR2 peptide (MHV); 0.0157 µg/mL in assay [11].

B9: CV3-25 (antibody)
chain 1: QVQLVESGAEVKKPGESLKISCKGSGYTFTRYWIGWVRQMPGKGLEWMGIIYPGDSDTRYSPSFQGHVTISADKSISTAYLQWNSLKASDTAMYYCARLPQYCSNGVCQRWFDPWGQGTLVTVSS
chain 2: EIVLTQSPSSVSASVGDRVTITCRASQGISSWLAWYQQKPGKAPKLLIYAASSLQSGVPSRFSGSGSGTDFTLTISSLQPEDFATYYCQQGNSFPYTFGQGTNLEIK
On to B9, for which the EC50 in assay [9] was 1.57 µg/mL; in [10], 0.00968 µg/mL; in assay [12], 0.358 µg/mL; with MHV HR2 peptide (MHV), 0.0239 µg/mL.

For the origin of these results see patent publication US20250382354A1.
